# Measured values from patent publication US20190352664A1, “COMPOSITIONS AND METHODS FOR CONTROLLING GENE EXPRESSION” (priority 2017, published 2019).
# Tested on: Arabidopsis
# Test: Ribo-seq and RNA-seq global translatome profiling (translational efficiency TE, mORF/uORF ribo-shift) upon elf18 treatment
# Type: in vivo
# Set-up: key to score (Ribo-shift): Up: ribo-shift up (i.e., increased mORF/uORF ratio); Down: ribo-shift down (i.e., decreased mORF/uORF ratio)
# Settings: elf18 vs Mock; for score (TE change): translational efficiency fold change, listed as shows 5′ UTR of the transcript
molecule,measurement,setting,value
"AT5G14930.1: 5′ UTR of transcript; senescence-associated gene 101 (nucleic acid, listed as DNA, chemistry not fully specified) DNA: TATGGACTCTCGTTCTCAGACATTTATTTCTCTCAGTCTTACAATATAAATTTTCATTCTTACCATCCATAATTTTGTATTGTCTTCTCCACAGATCTATTCCAGCTCACGCC",score (TE change),,TEdown (389 genes displayed decreased TEfc (|z|≥1.5))
AT4G32800.1: 5′ UTR of transcript; Integrase-type DNA-binding superfamily protein (nucleic acid) DNA: ATTTCATAAATCATAGAGAGAGAGAGAGAGAGAGAGAGAGAGTTTGGAAACATTCCAAAACCAGAACTCGATATTATTTCACCAAAGAATGATAGAAACAAGAACTATCTTTTTATAAAACTCTTTACACCCCAAAAGAAAATGTCTCACTCGTTTTGCCTTATAATATTTCTTTCAACAACAACCCAAATCTACAAAAAATCCCAATAAAAAAAAACTTCAGTCTGTTTGACATTTTGTCGAACACTTGGACGGCATCACAAAAAGCTCTAAACTTTCTGACTACCA,score (TE change),,TEdown (389 genes displayed decreased TEfc (|z|≥1.5))
AT4G24750.1: 5′ UTR of transcript; Rhodanese/Cell cycle control phosphatase superfamily protein (nucleic acid) DNA: GAGTCTGGTTCGAAAAGACTGCTTCAATGAAGCCAAAACTATCCAATAACTCGAAATTGACTACTCTTTTCTTTTGTCTCTGTTGTTGATTCGCAAAGGCGAAGATTATCCATCTTCTCAGTTACTCCTACTGGAACCAAAAGCTCAGAACCTTAAAAC,score (TE change),,TEdown (389 genes displayed decreased TEfc (|z|≥1.5))
"AT4G37925.1: 5′ UTR of transcript; subunit NDH-M of NAD(P)H:plastoquinone dehydrogenase complex (nucleic acid, listed as DNA, chemistry not fully specified, 5′ UTR of transcript; subunit NDH-M of NAD(P)H:plastoquinone dehydrogenase complex) DNA: ATGGTTCTGTAACCGGACAACATCTCAAAACTTGTTCTGTTTTTTTTTTTTCATTTCTTAGACAGAAAA",score (TE change),,TEup (448 had increased TEfc)
AT4G23740.1: 5′ UTR of transcript; Leucine-rich repeat protein kinase family protein (nucleic acid) DNA: CTTTCACCCACTTTAATATGCCAAAAAATAAGAACAAAATTATATCCGTTGCTTGAAAATCACAAGCTCTTCTTAACTTCACAAGTGCTTCAATGGCGGTTCTTCACATTATCTTCACTGCGTAATTGAAGAAGTTGTTCTCTCTTCCTCTTAATTTCGAGTTGTGTTCTTAAAAAACTCCAGAGCTGATTCGATTCTCGAGAAGAAACTAAGCCGACAATAAAGTTCAGATCTGGAAAAAAGCGAGCTCCAGATTACAAAAAGAAACAGCTCGTTTTTTTCACTTTCAAAAAA,score (TE change),,TEup (448 had increased TEfc)
AT4G34460.1: 5′ UTR of transcript; GTP binding protein beta 1 (nucleic acid) DNA: GACCCTCTTCTCTCTCTCTAGCTAGTCTCAGGTCAGAGAAGCCATCATCAACATTCAACAAGAGAGCCGTGTTTGTGTCTTGACTGATTCTTCTCTCAAGCTTTTTTAATCTCTCTCTCTTTTCCCACGTAATTCCCCCAAATCCATTCTTTCTAGGGTTCGATCTCCCTCTCTCAATCATGAACCTTCTTCTCTTCTAGACCCCACAAAGTTTCCCCCTTTTATTTGATCGGCGACGGAGAAGCCTAAGTCTGATCCCGGA,score (TE change),,TEdown (389 genes displayed decreased TEfc (|z|≥1.5))
AT1G19270.1: 5′ UTR of transcript; DA1 (nucleic acid) DNA: CGTGGGGAACGTTTTTTCCTGGAAGAAGAAGAAGAAGAGCTCAACAAGCTCAACGACCAAAAAACTTCGGACACGAAGACTTTTTAATTCATTTCTCCTCTTTTGTTTTTTTCGTTCCAAAATATTCGATACTCTCGATCTCTTCTTCGTGATCCTCATTAAATAAAAATACGATTTTTATTCTTTTTTTGTGAGTGCACCAAATTTTTTGACTTTGGATTAGCGTAGAATTCAAGCACATTCTGGGTTTATTCGTGTATGAGTAGACATTGATTTTGTCAAAGTTGCATTCTTTTATATAAAAAAAGTTTAATTTCCTTTTTTCTTTTCTTTTCTCTTTTTTTTTTTTTTCCCCCATGTTATAGATTCTTCCCCAAATTTTGAAGAAAGGAGAGAACTAAAGAGTCCTTTTTGAGATTCTTTTGCTGCTTCCCTTGCTTGATTAGATCATTTTTGTGATTCTGGATTTTGTGGGGGTTTCGTGAAGCTTATTGGGATCTTATCTGATTCAGGATTTTCTCAAGGCTGCATTGCCGTATGAGCAGATAGTTTTATTTAGGCATT,score (TE change),,TEdown (389 genes displayed decreased TEfc (|z|≥1.5))
AT4G32660.1: 5′ UTR of transcript; Protein kinase superfamily protein (nucleic acid) DNA: AATTGGTGGATGTCGTCGCGGTTCGACCCCAAGGGATTTGGCCGGTAAAATTATTGGGAGTTGTCTTTCTCTTGCACTCTCTCTAGTTCCAAACCCTAGCAATTCCTCTGTTTTCACCATTTTCGGAGATTATCACCTTCTCCCCGATTCGCCGCCTTGTGATTACATCTACGTAAAGAGTTTCTGGTAGAAATTTTCCCTCTTTTAGCTGCAGATTGGCATCAGATTCCGTTCTGGATGTGTCGGTGATCGATTTTCCGCGTCGGTG,score (TE change),,TEup (448 had increased TEfc)
AT4G38950.1: 5′ UTR of transcript; ATP binding microtubule motor family protein (nucleic acid) DNA: AAGAACAAACAACTACCAAACTTGTAGGCAGTAGCAGGAGGAAGTGGGTGGGATTAACATTGTCATTTCTCTCTCTTTTTCTTTTACAAATCTTTCCGTTTTGTTTTCTTTTGGTTTTCCGGTGAGCACTGTTGTGTTTCCAATTCCGGCACTCTTTAGGGTTCCCTTTCAGAAGAAAACTTCACATTGTTGTTTCTCTCAACCGTGACATCTTGGATTACTACTTCTGACTACTTTCCTTTTTCATGTGCCCCAAAAGATAATAGTTACTTTTTCAAAATCTGGTTTTGTTGTTTGGGTTTGTGTCATTCATTGATAAAGTCACTAATGGAGAAGTACAAAACAATTGCAAAATTTCGAATCTGTGTTGTCATTGCTGAATTCTGTAGTGGATGTTTGCTTGCAGTTTAGAGCTTCGGAGTGCGAAGAGTGAGACACAAGAGGATTCTTTCTGGAACCGCATTATTCCCTTTAGAGGAGGAAGAAGAAGACAACTCACTCACAAGGAAAACAAAGGTTCCTCTGGTTACTCTGAAATATTCAAACCAATGGTGAGCAATTGGTAGCACTTGCTAAAGAAG,score (TE change),,TEdown (389 genes displayed decreased TEfc (|z|≥1.5))
AT5G11790.1: 5′ UTR of transcript; N-MYC downregulated-like 2 (nucleic acid) DNA: AAACACAAAAAAACGAAGATAGCCATCGTTTTGGTGAGAGAAGAGAGAAGAGAGAAGAAGAAGGCCATGGAAAGATAATACTCTGCTTTTTTTTTAGAAATATACAGAGGAAATAAAGAGAGAGAGAAGGAG,score (TE change),,TEdown (389 genes displayed decreased TEfc (|z|≥1.5))
"AT4G24750.1_1: uORF of AT4G24750.1; peptide SEQ ID NO: 26 (nucleic acid, listed as DNA, chemistry not fully specified) DNA: ATGAAGCCAAAACTATCCAATAACTCGAAATTGACTACTCTTTTCTTTTGTCTCTGTTGTTGA",score (Ribo-shift),"shift of mORF/uORF ratio, per uORF",Down
AT4G18570.1: 5′ UTR of transcript; Tetratricopeptide repeat (TPR)-like superfamily protein (nucleic acid) DNA: ATTTTTATTACTCTCTCAAGTAGTCTCATCTTCTTCTTAATCCAAAGGCCCAAACTTTGAATCATCACTATCACTCTCTCTCTCTCTCTCTATCTCTCAAGAACTGCACGGACAACGACATGCTTTTAATTTCCATGCAAATCTCTCCTTTCTTCTCAAGTCATTTTTGAAAATCAATCAAAAAACTGAAACTTGGTGGAGCTTTTATCATTCACTCATCA,score (TE change),,TEdown (389 genes displayed decreased TEfc (|z|≥1.5))
AT4G17840.1: 5′ UTR of transcript (nucleic acid) DNA: ATCAAAATCAATGATCAAGGTAACGTAGTCAAGTTCAATTACTCTTTGTCAAATTTAAGTGGTCTCTATTACTAAACTATACACAACCGTTAGATCAAATAATTCTCTACCATCCAACGGTCCAAAGTCTCCACTTCTATTTATTACAATAAAATGAGAAAATAAAAACGCGCGGTCACCGATTCTCTCTCGCTCTCTCTGTTACTAAATGAAGAAGAGAATCTCTCCGGCGAGATCACCGGCGTTATTCCGATAATTTCGCCTGAGAGTTGTCGCATGTTATAA,score (TE change),,TEup (448 had increased TEfc)
AT4G26080.1: 5′ UTR of transcript; Protein phosphatase 2C family protein (nucleic acid) DNA: GAAGCAATTGTTGCATTAGCCTACCCATTTCCTCCTTCTTTCTCTCTTCTATCTGTGAACAAGGCACATTAGAACTCTTCTTTTCAACTTTTTTAGGTGTATATAGATGAATCTAGAAATAGTTTTATAGTTGGAAATTAATTGAAGAGAGAGAGATATTACTACACCAATCTTTTCAAGAGGTCCTAACGAATTACCCACAATCCAGGAAACCCTTATTGAAATTCAATTCATTTCTTTCTTTCTGTGTTTGTGATTTTCCCGGGAAATATTTTTGGGTATATGTCTCTCTGTTTTTGCTTTCCTTTTTCATAGGAGTCATGTGTTTCTTCTTGTCTTCCTAGCTTCTTCTAATAAAGTCCTTCTCTTGTGAAAATCTCTCGAATTTTCATTTTTGTTCCATTGGAGCTATCTTATAGATCACAACCAGAGAAAAAGATCAAATCTTTACCGTTA,score (TE change),,TEdown (389 genes displayed decreased TEfc (|z|≥1.5))
